Test results: patent US20240327475A1 (UNIVERSITY OF MARYLAND COLLEGE PARK, published 2024)

T1: control non-targeted ASM (Olipudase); full recombinant ASM produced by He et al. (1999), which served as … (human, UniProt P17405 62-631)
T1 construct: also called control ASM
T1 sequence (looked up): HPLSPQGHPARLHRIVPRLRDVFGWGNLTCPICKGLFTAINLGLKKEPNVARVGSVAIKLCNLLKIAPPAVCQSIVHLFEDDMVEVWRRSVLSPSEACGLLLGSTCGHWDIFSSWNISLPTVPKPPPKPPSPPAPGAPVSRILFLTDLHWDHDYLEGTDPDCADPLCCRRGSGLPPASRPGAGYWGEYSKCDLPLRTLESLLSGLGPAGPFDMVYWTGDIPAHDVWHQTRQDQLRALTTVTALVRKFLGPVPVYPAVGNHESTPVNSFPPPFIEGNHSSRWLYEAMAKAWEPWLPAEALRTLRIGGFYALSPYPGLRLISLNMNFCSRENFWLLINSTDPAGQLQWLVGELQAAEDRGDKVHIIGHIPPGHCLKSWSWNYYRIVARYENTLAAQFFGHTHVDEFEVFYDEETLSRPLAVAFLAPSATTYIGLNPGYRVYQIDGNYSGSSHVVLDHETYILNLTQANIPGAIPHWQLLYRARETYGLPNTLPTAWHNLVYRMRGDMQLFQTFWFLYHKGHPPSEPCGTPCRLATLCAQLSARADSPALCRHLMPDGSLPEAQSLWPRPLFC

B1: ICAM-1 on human cells (HUVEC; human brain endothelial cells and astrocytes of the BBB model; iPS-derived neurons from a Gaucher patient) (receptor, UniProt P05362 28-532, looked up)
chain: QTSVSPSKVILPRGGSVLVTCSTSCDQPKLLGIETPLPKKELLLPGNNRKVYELSNVQEDSQPMCYSNCPDGQSTAKTFLTVYWTPERVELAPLPSWQPVGKNLTLRCQVEGGAPRANLTVVLLRGEKELKREPAVGEPAEVTTTVLVRRDHHGANFSCRTELDLRPQGLELFENTSAPYQLQTFVLPATPPQLVSPRVLEVDTQGTVVCSLDGLFPVSEAQVHLALGDQRLNPTVTYGNDSFSAKASVSVTAEDEGTQRLTCAVILGNQSQETLQTVTIYSFPAPNVILTKPEVSEGTEVTVKCEAHPRAKVTLNGVPAQPLGPRAQLLLKATPEDNGRSFSCSATLEVAGQLIHKNQTRELRVLYGPRLDERDCPGNWTWPENSQQTPMCQAWGNPLPELKCLKDGTFPLPIGESVTVTRDLEGTYLCRARSTQGEVTRKVTVNVLSPRYEIVIITVVAAAVIMGTAGLSTYLYNRQRKIKKYRLQQAQKGTPMKPNTQATPP
notes: whole, on cells; also called ICAM receptor; intercellular adhesion molecule-1
B2: targeted fusion GCase protein J in Example 1 (human GCase with five tandem-repeats of the 2γ3 ICAM-1-targeting peptide at the amino terminus), after … (enzyme)
chain: NNQKIVNIKEKVAQIEAGGGGSGGGGSNNQKIVNIKEKVAQIEAGGGGSGGGGSNNQKIVNIKEKVAQIEAGGGGSGGGGSNNQKIVNIKEKVAQIEAGGGGSGGGGSNNQKIVNIKEKVAQIEAGGGGSGGGGSGFLGARPCIPKSFGYSSVVCVCNATYCDSFDPPTFPALGTFSRYESTRSGRRMELSMGPIQANHTGTGLLLTLQPEQKFQKVKGFGGAMTDAAALNILALSPPAQNLLLKSYFSEEGIGYNIIRVPMASCDFSIRTYTYADTPDDFQLHNFSLPEEDTKLKIPLIHRALQLAQRPVSLLASPWTSPTWLKTNGAVNGKGSLKGQPGDIYHQTWARYFVKFLDAYAEHKLQFWAVTAENEPSAGLLSGYPFQCLGFTPEHQRDFIARDLGPTLANSTHHNVRLLMLDDQRLLLPHWAKVVLTDPEAAKYVHGIAVHWYLDFLAPAKATLGETHRLFPNTMLFASEACVGSKFWEQSVRLGSWDRGMQYSHSIITNLLYHVVGWTDWNLALNPEGGPNWVRNFVDSPIIVDITKDTFYKQPMFYHLGHFSKFIPEGSQRVGLVASQKNDLDAVALMHPDGSAVVVVLNRSSKDVPLTIKDPAVGFLETISPGYSIHTYLWRRQ
modifications: pre-labeled with 125Iodine

What was measured:
[1] = biological target: T1, control non-targeted ASM (Olipudase); …; assay: Incubation with HUVEC cells (known to express ICAM-1) for 3 h at 37° C., then fixation, permeabilization and anti-ASM + FITC-secondary antibody staining (cell association and uptake)
[2] = biological target: B1; assay: cell-based or functional assay

binding result [1] | association to iPS-derived neurons from a Gaucher patient, fold over control non-targeted enzyme [2] | Binder
no binding | – | B1
– | ~3 fold | B2
